Assays:
[1] = molecular target: STRO-1 monoclonal antibody; experiment: competition: STRO-1 pre-incubated with GST-L393, flow cytometry on UE7T-13 cells, relative to pre-incubation with GST alone
[2] = molecular target: heat shock cognate 70 (HSC70; HSPA8) on the surface of UE7T-13 cells (human) (UniProt P11142); experiment: flow cytometry on UE7T-13 cells, hybridoma supernatant, fluorescein anti-mouse IgM
[3] = molecular target: STRO-1 monoclonal antibody; experiment: competition: STRO-1 pre-incubated with rh-HSC70 overnight at 4 C, flow cytometry of STRO-1 on UE7T-13 cells

UniProt P11142, sequence (P11142 2-646 limits assumed): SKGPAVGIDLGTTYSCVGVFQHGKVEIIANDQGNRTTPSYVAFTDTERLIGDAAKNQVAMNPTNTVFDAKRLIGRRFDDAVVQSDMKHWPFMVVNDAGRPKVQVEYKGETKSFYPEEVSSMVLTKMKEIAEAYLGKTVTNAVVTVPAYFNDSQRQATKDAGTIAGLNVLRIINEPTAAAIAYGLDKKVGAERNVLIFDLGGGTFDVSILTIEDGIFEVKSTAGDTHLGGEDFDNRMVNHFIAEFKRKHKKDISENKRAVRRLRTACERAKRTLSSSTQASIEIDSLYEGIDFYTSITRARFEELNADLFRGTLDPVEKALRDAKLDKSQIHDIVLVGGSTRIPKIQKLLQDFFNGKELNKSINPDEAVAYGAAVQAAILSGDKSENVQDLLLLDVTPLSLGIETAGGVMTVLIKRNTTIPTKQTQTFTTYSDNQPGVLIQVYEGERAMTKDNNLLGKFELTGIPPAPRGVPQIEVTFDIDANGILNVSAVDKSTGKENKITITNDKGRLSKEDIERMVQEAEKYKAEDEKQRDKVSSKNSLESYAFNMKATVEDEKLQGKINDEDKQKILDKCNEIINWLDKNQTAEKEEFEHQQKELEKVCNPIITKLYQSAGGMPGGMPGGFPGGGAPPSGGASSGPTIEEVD

GST-L393 (N-terminal Glutathione S-transferase fusion of the first 393 amino acids of human HSC70) (from UniProt A2Q0Z1 1-393)
reduction in antibody binding [1]: 60%

STRO-1 monoclonal antibody
MFI [2]: 17200

recombinant human HSC70 (Enzo) (from UniProt A2Q0Z1 1-646)
reduction in MFI [3]: 30%

From patent US20180135019A1
